Measured values: patent US20040018957A1, “Crystal structure of a Ras-P13K complex” (priority 2000, published 2004)
Positions count from the first letter of the chain named. Names and notes keep the numbering of the source.

B1: V223K: tighter-binding PI3Kγ mutant used for co-crystallisation with Ras (protein, UniProt P48736 1-1102, looked up, variant V223K)
Phosphatidylinositol …: MELENYKQPVVLREDNCRRRRRMKPRSAAASLSSMELIPIEFVLPTSQRKCKSPETALLHVAGHGNVEQMKAQVWLRALETSVAADFYHRLGPHHFLLLYQKKGQWYEIYDKYQVVQTLDCLRYWKATHRSPGQIHLVQRHPPSEESQAFQRQLTALIGYDVTDVSNVHDDELEFTRRGLVTPRMAEVASRDPKLYAMHPWVTSKPLPEYLWKKIANNCIFIKIHRSTTSQTIKVSPDDTPGAILQSFFTKMAKKKSLMDIPESQSEQDFVLRVCGRDEYLVGETPIKNFQWVRHCLKNGEEIHVVLDTPPDPALDEVRKEEWPLVDDCTGVTGYHEQLTIHGKDHESVFTVSLWDCDRKFRVKIRGIDIPVLPRNTDLTVFVEANIQHGQQVLCQRRTSPKPFTEEVLWNVWLEFSIKIKDLPKGALLNLQIYCGKAPALSSKASAESPSSESKGKVQLLYYVNLLLIDHRFLLRRGEYVLHMWQISGKGEDQGSFNADKLTSATNPDKENSMSISILLDNYCHPIALPKHQPTPDPEGDRVRAEMPNQLRKQLEAIIATDPLNPLTAEDKELLWHFRYESLKHPKAYPKLFSSVKWGQQEIVAKTYQLLARREVWDQSALDVGLTMQLLDCNFSDENVRAIAVQKLESLEDDDVLHYLLQLVQAVKFEPYHDSALARFLLKRGLRNKRIGHFLFWFLRSEIAQSRHYQQRFAVILEAYLRGCGTAMLHDFTQQVQVIEMLQKVTLDIKSLSAEKYDVSSQVISQLKQKLENLQNSQLPESFRVPYDPGLKAGALAIEKCKVMASKKKPLWLEFKCADPTALSNETIGIIFKHGDDLRQDMLILQILRIMESIWETESLDLCLLPYGCISTGDKIGMIEIVKDATTIAKIQQSTVGNTGAFKDEVLNHWLKEKSPTEEKFQAAVERFVYSCAGYCVATFVLGIGDRHNDNIMITETGNLFHIDFGHILGNYKSFLGINKERVPFVLTPDFLFVMGTSGKKTSPHFQKFQDICVKAYLALRHHTNLLIILFSMMLMTGMPQLTSKEDIEYIRDALTVGKNEEDAKKYFLDQIEVCRDKGWTVQFNWFLHLVLGIKQGEKHSA
B2: K251A: PI3Kγ RBD mutant (protein, UniProt P48736 1-1102, looked up, variant K251A)
Phosphatidylinositol …: B1 Phosphatidylinositol … with K223V, K251A
B3: K234A: PI3Kγ mutant of a switch II contact residue (protein, UniProt P48736 1-1102, looked up, variant K234A)
Phosphatidylinositol …: B1 Phosphatidylinositol … with K223V, K234A
B4: T232D: PI3Kγ RBD mutant (protein, UniProt P48736 1-1102, looked up, variant T232D)
Phosphatidylinositol …: B1 Phosphatidylinositol … with K223V, T232D
B5: K255A: PI3Kγ RBD mutant (protein, UniProt P48736 1-1102, looked up, variant K255A)
Phosphatidylinositol …: B1 Phosphatidylinositol … with K223V, K255A

Molecular target: T1, N-Ras.mant-GMPPNP (Homo sapiens, UniProt P01111)
T1 construct: fluorescence anisotropy of full length, unmodified N-Ras.mant-GMPPNP
T1 sequence (P01111 whole entry): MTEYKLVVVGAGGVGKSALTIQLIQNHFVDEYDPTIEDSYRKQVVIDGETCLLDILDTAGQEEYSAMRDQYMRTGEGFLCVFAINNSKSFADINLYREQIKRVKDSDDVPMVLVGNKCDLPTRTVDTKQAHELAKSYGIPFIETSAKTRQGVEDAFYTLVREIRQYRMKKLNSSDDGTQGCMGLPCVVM
Assay: Fluorescence anisotropy titration of PI3Kγ 144-1102 into N-Ras.mant-GMPPNP
Format: binding
Conditions: mutants in the 144-1102 construct, FIG. 2A
Experimental: Mant-nucleotides were synthesised as described previously (Jameson and Eccleston, 1997). N-Ras and H-Ras mutants were loaded with mant-GMPPNP as in (Moore et al., 1993), gel filtered into running buffer (20 mM Tris pH 7.5, 2 mM MgCl2, 1 mM DTT), and frozen at −80° C. The concentration of Ras.mant-GMPPNP was determined by measuring the absorbance of the mant group at […] with ε=5700 M^−1 cm^−1 (Hiratsuka, 1983). For binding assays, the 144-1102 human PI3Kγ was titrated into a 1 μM solution of fill length, unmodified N-Ras.mant-GMPPNP. Data were collected with SLM 8000 S and ISS PC1 spectrofluorimeters, set up in the T-format and L-format, respectively, with prism polarizers. All measurements were taken at 20° C. with a λex of 366 nm. Both emission PMTs were fitted with 399 nm cutoff filters. Five measurements of each data point were obtained and averaged. Data were fitted to the binding equation.

effect of PI3Kγ RBD mutation on binding to Ras	Molecule
tighter-binding	B1
eliminate binding	B2
probably increases the Kd	B3
eliminate binding	B4
eliminate binding	B5

Molecular target: N-Ras.GDP (Homo sapiens, UniProt P01111)
Sequence (P01111 whole entry): as above
Assay: Binding of PI3Kγ constructs to N-Ras.GDP
Conditions: not given

Molecule	binding to N-Ras.GDP
B1	Neither the wild-type protein, the pseudo wild-type (V327A, see methods), nor the V223K mutant exhibit detectable binding
